Laboratory results from patent EP4806922A2 (Lyvgen Biopharma Holdings Limited, dated 2026).

T1: human BCMA protein (human, UniProt Q02223 1-54)
T1 construct: also called human BCMA expressing NCI-H929 cells; human BCMA overexpressing HEK293 cells
T1 sequence (looked up): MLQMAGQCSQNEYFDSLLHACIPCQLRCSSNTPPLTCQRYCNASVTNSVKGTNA

B1: Ly2949 (BCMA/CD3/CD137) (other)
heavy 1: QVQLVQSGAEVKKPGASVKVSCKASGYTFTNHIIHWVRQAPGQGLEWMGYINPYPGYHAYNEKFQGRATMTSDTSTSTVYMELSSLRSEDTAVYYCARDGYYRDTDVLDYWGQGTLVTVSSASTKGPSVFPLAPSSKSTSGGTAALGCLVKDYFPEPVTVSWNSGALTSGVHTFPAVLQSSGLYSLSSVVTVPSSSLGTQTYICNVNHKPSNTKVDKKVEPKSCGGGGSGGGGSGGGGSGGGGSEVQLVESGGGLVQPGGSLRLSCAASGFTFSTYAMNWVRQAPGKGLEWVGRIRSKYNNYATYYADSVKGRFTISRDDSKNSLYLQMNSLKTEDTAVYYCVRHGNFGNSYVSWFAYWGQGTLVTVSSGGGGSDKTHTCPPCPAPELLGPSVFLFPPKPKDTLMISRTPEVTCVVVDVSHEDPEVKFNWYVDGVEVHNAKTKPREEQYNSTYRVVSVLTVLHQDWLNGKEYKCKVSNKALGAPIEKTISKAKGQPREPQVYTLPPSREEMTKNQVSLWCLVKGFYPSDIAVEWESNGQPENNYKTTPPVLDSDGSFFLYSKLTVDKSRWQQGNVFSCSVMHEALHNHYTQKSLSLSPGKGGGGSGGGGSGGGGSGGGGSQVQLVQSGAEVKKPGASVKVSCKASGYTFAGFEMHWVRQAPGQGLEWMGAIDPKTGGTDYNQKFKDRVTMTRDTSISTAYMELSRLRSDDTAVYYCARDLGYFDVWGQGTLVTVSS
heavy 2: QVQLVQSGAEVKKPGASVKVSCKASGYTFTNHIIHWVRQAPGQGLEWMGYINPYPGYHAYNEKFQGRATMTSDTSTSTVYMELSSLRSEDTAVYYCARDGYYRDTDVLDYWGQGTLVTVSSASTKGPSVFPLAPSSKSTSGGTAALGCLVKDYFPEPVTVSWNSGALTSGVHTFPAVLQSSGLYSLSSVVTVPSSSLGTQTYICNVNHKPSNTKVDKKVEPKSCGGGGSGGGGSGGGGSGGGGSQAVVTQEPSLTVSPGGTVTLTCRSSTGAVTTSNYANWVQQKPGQAPRGLIGGTNKRAPWTPARFSGSLLGGKAALTITGAQAEDEADYYCALWYSNLWVFGGGTKLTVLGGGGSDKTHTCPPCPAPELLGPSVFLFPPKPKDTLMISRTPEVTCVVVDVSHEDPEVKFNWYVDGVEVHNAKTKPREEQYNSTYRVVSVLTVLHQDWLNGKEYKCKVSNKALGAPIEKTISKAKGQPREPQVYTLPPSREEMTKNQVSLSCAVKGFYPSDIAVEWESNGQPENNYKTTPPVLDSDGSFFLVSKLTVDKSRWQQGNVFSCSVMHEALHNRFTQKSLSLSPGKGGGGSGGGGSGGGGSGGGGSDIQMTQSPSSLSASVGDRVTITCRASQDIRSNLNWYQQKPGGAVKLLIYYTSRLHSGVPSRFSGSGSGTDYTLTISSLQPEDFATYFCQQSEKLPRTFGGGTKVEIR
light: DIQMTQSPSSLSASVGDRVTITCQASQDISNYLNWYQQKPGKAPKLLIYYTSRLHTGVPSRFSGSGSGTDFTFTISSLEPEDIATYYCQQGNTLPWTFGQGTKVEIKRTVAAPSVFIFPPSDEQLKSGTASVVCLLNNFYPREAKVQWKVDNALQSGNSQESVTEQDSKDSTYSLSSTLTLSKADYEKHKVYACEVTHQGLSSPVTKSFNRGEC
notes: Multi-specific (tri-specific) antibody with three different chains HC1, HC2, LC1; also called BCMA(a) /CD3 /CD137; anti-BCMA/CD3/CD137 multi-specific antibody
B2: Ly3096 (BCMA/CD3/CD137) (other)
heavy 1: QLQLQESGPGLVKPSETLSLTCTVSGGSISSGSYFWGWIRQPPGKGLEWIGSIYYSGITYYNPSLKSRVTISVDTSKNQFSLKLSSVTAADTAVYYCARHDGAVAGLFDYWGQGTLVTVSSASTKGPSVFPLAPSSKSTSGGTAALGCLVKDYFPEPVTVSWNSGALTSGVHTFPAVLQSSGLYSLSSVVTVPSSSLGTQTYICNVNHKPSNTKVDKKVEPKSCGGGGSGGGGSGGGGSGGGGSEVQLVESGGGLVQPGGSLRLSCAASGFTFSTYAMNWVRQAPGKGLEWVGRIRSKYNNYATYYADSVKGRFTISRDDSKNSLYLQMNSLKTEDTAVYYCVRHGNFGNSYVSWFAYWGQGTLVTVSSGGGGSDKTHTCPPCPAPELLGPSVFLFPPKPKDTLMISRTPEVTCVVVDVSHEDPEVKFNWYVDGVEVHNAKTKPREEQYNSTYRVVSVLTVLHQDWLNGKEYKCKVSNKALGAPIEKTISKAKGQPREPQVYTLPPSREEMTKNQVSLWCLVKGFYPSDIAVEWESNGQPENNYKTTPPVLDSDGSFFLYSKLTVDKSRWQQGNVFSCSVMHEALHNHYTQKSLSLSPGKGGGGSGGGGSGGGGSGGGGSQVQLVQSGAEVKKPGASVKVSCKASGYTFAGFEMHWVRQAPGQGLEWMGAIDPKTGGTDYNQKFKDRVTMTRDTSISTAYMELSRLRSDDTAVYYCARDLGYFDVWGQGTLVTVSS
heavy 2: QLQLQESGPGLVKPSETLSLTCTVSGGSISSGSYFWGWIRQPPGKGLEWIGSIYYSGITYYNPSLKSRVTISVDTSKNQFSLKLSSVTAADTAVYYCARHDGAVAGLFDYWGQGTLVTVSSASTKGPSVFPLAPSSKSTSGGTAALGCLVKDYFPEPVTVSWNSGALTSGVHTFPAVLQSSGLYSLSSVVTVPSSSLGTQTYICNVNHKPSNTKVDKKVEPKSCGGGGSGGGGSGGGGSGGGGSQAVVTQEPSLTVSPGGTVTLTCRSSTGAVTTSNYANWVQQKPGQAPRGLIGGTNKRAPWTPARFSGSLLGGKAALTITGAQAEDEADYYCALWYSNLWVFGGGTKLTVLGGGGSDKTHTCPPCPAPELLGPSVFLFPPKPKDTLMISRTPEVTCVVVDVSHEDPEVKFNWYVDGVEVHNAKTKPREEQYNSTYRVVSVLTVLHQDWLNGKEYKCKVSNKALGAPIEKTISKAKGQPREPQVYTLPPSREEMTKNQVSLSCAVKGFYPSDIAVEWESNGQPENNYKTTPPVLDSDGSFFLVSKLTVDKSRWQQGNVFSCSVMHEALHNRFTQKSLSLSPGKGGGGSGGGGSGGGGSGGGGSDIQMTQSPSSLSASVGDRVTITCRASQDIRSNLNWYQQKPGGAVKLLIYYTSRLHSGVPSRFSGSGSGTDYTLTISSLQPEDFATYFCQQSEKLPRTFGGGTKVEIR
light: SYVLTQPPSVSVAPGQTARITCGGNNIGSKSVHWYQQPPGQAPVVVVYDDSDRPSGIPERFSGSNSGNTATLTISRVEAGDEAVYYCQVWDSSSDHVVFGGGTKLTVLGQPKAAPSVTLFPPSSEELQANKATLVCLISDFYPGAVTVAWKGDSSPVKAGVETTTPSKQSNNKYAASSYLSLTPEQWKSHRSYSCQVTHEGSTVEKTVAPTECS
notes: Multi-specific (tri-specific) antibody with three different chains HC1, HC2, LC1; also called BCMA(b) /CD3 /CD137
B3: Ly3106 (BCMA/CD3/PD-L1) (other)
heavy 1: QLQLQESGPGLVKPSETLSLTCTVSGGSISSGSYFWGWIRQPPGKGLEWIGSIYYSGITYYNPSLKSRVTISVDTSKNQFSLKLSSVTAADTAVYYCARHDGAVAGLFDYWGQGTLVTVSSASTKGPSVFPLAPSSKSTSGGTAALGCLVKDYFPEPVTVSWNSGALTSGVHTFPAVLQSSGLYSLSSVVTVPSSSLGTQTYICNVNHKPSNTKVDKKVEPKSCGGGGSGGGGSGGGGSGGGGSEVQLVESGGGLVQPGGSLRLSCAASGFTFSTYAMNWVRQAPGKGLEWVGRIRSKYNNYATYYADSVKGRFTISRDDSKNSLYLQMNSLKTEDTAVYYCVRHGNFGNSYVSWFAYWGQGTLVTVSSGGGGSDKTHTCPPCPAPELLGPSVFLFPPKPKDTLMISRTPEVTCVVVDVSHEDPEVKFNWYVDGVEVHNAKTKPREEQYNSTYRVVSVLTVLHQDWLNGKEYKCKVSNKALGAPIEKTISKAKGQPREPQVYTLPPSREEMTKNQVSLWCLVKGFYPSDIAVEWESNGQPENNYKTTPPVLDSDGSFFLYSKLTVDKSRWQQGNVFSCSVMHEALHNHYTQKSLSLSPGKGGGGSGGGGSGGGGSGGGGSQVQLVQSGAEVKKPGASVKVSCKASGYTFTDFWMSWVRQAPGQGLEWMGQIYPNTGTTHSNEKFKGRVTMTRDTSTSTVYMELSSLRSEDTAVYYCARSYHISTTPNWFAYWGQGTLVTVSS
heavy 2: QLQLQESGPGLVKPSETLSLTCTVSGGSISSGSYFWGWIRQPPGKGLEWIGSIYYSGITYYNPSLKSRVTISVDTSKNQFSLKLSSVTAADTAVYYCARHDGAVAGLFDYWGQGTLVTVSSASTKGPSVFPLAPSSKSTSGGTAALGCLVKDYFPEPVTVSWNSGALTSGVHTFPAVLQSSGLYSLSSVVTVPSSSLGTQTYICNVNHKPSNTKVDKKVEPKSCGGGGSGGGGSGGGGSGGGGSQAVVTQEPSLTVSPGGTVTLTCRSSTGAVTTSNYANWVQQKPGQAPRGLIGGTNKRAPWTPARFSGSLLGGKAALTITGAQAEDEADYYCALWYSNLWVFGGGTKLTVLGGGGSDKTHTCPPCPAPELLGPSVFLFPPKPKDTLMISRTPEVTCVVVDVSHEDPEVKFNWYVDGVEVHNAKTKPREEQYNSTYRVVSVLTVLHQDWLNGKEYKCKVSNKALGAPIEKTISKAKGQPREPQVYTLPPSREEMTKNQVSLSCAVKGFYPSDIAVEWESNGQPENNYKTTPPVLDSDGSFFLVSKLTVDKSRWQQGNVFSCSVMHEALHNRFTQKSLSLSPGKGGGGSGGGGSGGGGSGGGGSDIQMTQSPSSLSASVGDRVTITCKASQNVYKKLEWYQQKPGKVPKVLIYHTNILQTGVPSRFSGSGSGTDYTLTISSLQPEDVATYYCYQWNSGPTFGGGTKVEIK
light: B2 light
notes: Multi-specific (tri-specific) antibody with three different chains HC1, HC2, LC1; also called BCMA(b) /CD3 /PD-L1

Tests used:
Test in all cases: FCM or ELISA, graded summary
[1] = target: T2, human CD137 protein (human, UniProt Q07011 24-186)
T2 construct: also called human CD137 expressing CHO cells
T2 sequence (Q07011 24-186 limits assumed): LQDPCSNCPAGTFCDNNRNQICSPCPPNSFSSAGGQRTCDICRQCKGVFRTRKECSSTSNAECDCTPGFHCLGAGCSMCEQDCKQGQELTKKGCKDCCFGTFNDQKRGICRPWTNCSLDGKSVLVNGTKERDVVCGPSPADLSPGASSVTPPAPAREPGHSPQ

[2] = target: T1, human BCMA protein
[3] = target: T3, human CD3D/E protein (human, UniProt P04234 22-105; P07766 23-126)
T3 construct: also called human CD3 expressing Jurkat cells
T3 sequence (P04234 22-105, chain 1 of 2): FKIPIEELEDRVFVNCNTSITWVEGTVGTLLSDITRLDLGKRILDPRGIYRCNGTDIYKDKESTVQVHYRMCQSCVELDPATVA
T3 sequence (P07766 23-126, chain 2 of 2): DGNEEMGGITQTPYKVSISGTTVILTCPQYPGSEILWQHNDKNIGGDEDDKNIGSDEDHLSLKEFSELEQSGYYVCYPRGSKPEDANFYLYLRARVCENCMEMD

[4] = target: human PD-L1 protein (human, UniProt Q9NZQ7 19-238)
Chain of human PD-L1 protein (Q9NZQ7 19-238 limits assumed): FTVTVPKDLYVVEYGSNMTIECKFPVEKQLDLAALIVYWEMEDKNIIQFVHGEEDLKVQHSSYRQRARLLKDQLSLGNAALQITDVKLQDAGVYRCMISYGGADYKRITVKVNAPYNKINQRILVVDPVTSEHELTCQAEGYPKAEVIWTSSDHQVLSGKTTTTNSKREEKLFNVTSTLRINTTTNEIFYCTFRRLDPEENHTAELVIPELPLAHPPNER

Row | Binder | binding result [1] | binding result [2] | binding result [3] | binding result [4]
1 | B1 | binds | binds | binds | 
2 | B2 | binds |  | binds | 
3 | B3 |  |  | binds | binds
